This note sets out measurements from PMC6983858.

For assay [1], the target named is full-length human neurofibromin (His6-tev-NF1, 2–2818) (human) (UniProt P21359). The assay can be described thus: SEC-MALS; single purified proteins; Superose-6 Increase or Superdex S-200 10/300 GL, Wyatt Heleos and Optilab T-Rex; BSA as standard. A general note: In gel filtration, larger molecules generally elute earlier.
For assay [2] the target is unchanged. As to the kind of experiment: AUC; sedimentation velocity and equilibrium of full-length neurofibromin, 1.2 μM to 25 nM, 20 °C, 20 mM HEPES pH 7.4, 300 mM NaCl, 1 mM TCEP; dimer to monomers.
Assay [3] shares this target. As to the kind of experiment: SAXS + SANS; full-length neurofibromin in solution, SAXS at 0.5 and 1.0 mg/ml, SANS at 1 mg/ml, 20 °C; molar mass from scattering.

For the substance “full-length human neurofibromin (His6-tev-NF1, 2–2818), P21359-2 2-2818”, the stoichiometry N in assay [1] and in assay [3] was 2 each time. In addition, the Kd – broadly, the constant that tells how readily two partners part at equilibrium – in assay [2] was under 1 nM.
